The text below walks through data of patent US20110150895A1 (SAMSUNG ELECTRONICS, published 2011).

Test [1] has as its target T1, recombinant hAng-2 (a recombinant human angiopoietin-2 protein with an attached His tag; R&D Systems) (human, UniProt O15123 19-496).
T1 construct: Bought reagent; not shown: His tag
T1 sequence (looked up): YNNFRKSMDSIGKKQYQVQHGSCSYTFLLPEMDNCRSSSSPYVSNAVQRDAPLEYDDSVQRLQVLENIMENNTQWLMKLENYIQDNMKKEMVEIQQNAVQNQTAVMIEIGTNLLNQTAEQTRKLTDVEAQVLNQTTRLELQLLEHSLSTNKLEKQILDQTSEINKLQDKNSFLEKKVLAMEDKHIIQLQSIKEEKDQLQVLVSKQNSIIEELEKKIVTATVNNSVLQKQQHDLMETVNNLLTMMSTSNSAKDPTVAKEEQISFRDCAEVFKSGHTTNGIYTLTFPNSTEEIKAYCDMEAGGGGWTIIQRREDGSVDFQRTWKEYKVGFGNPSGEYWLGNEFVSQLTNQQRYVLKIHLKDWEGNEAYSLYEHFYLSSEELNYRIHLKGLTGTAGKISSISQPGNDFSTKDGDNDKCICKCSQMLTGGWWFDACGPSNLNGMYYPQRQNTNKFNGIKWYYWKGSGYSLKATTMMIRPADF
Description: competitive ELISA: inhibition of 1 nM hAng-2 binding to coated hTie2-Fc. As for the experimental part:
A 96-well MaxiSorp™ flat-bottom plate (Nunc) was coated with recombinant human Tie2-Fc (hTie2-Fc) (R&D Systems, Inc.) dissolved in DMEM culture containing 50 μg/ml bovine serum albumin (BSA). The hTie-2Fc is a chimeric protein including the water-soluble extracellular region of human Tie-2 and the Fc fragment of human IgG₁. The concentration of hTie2-Fc immobilized was equivalent to 75% of its maximum binding concentration with 1 nM of recombinant hAng-2 (a recombinant human angiopoietin-2 protein with an attached His tag; R&D Systems). The plate was washed with Phosphate Buffered Saline (PBS) containing 0.1% TWEEN-20 five times and blocked with PBS containing 5% BSA at room temperature for two hours. To perform an ELISA experiment for determining whether binding between angiopoietin-2 and Tie-2 was neutralized, each of the monoclonal antibodies SAIT-Ang-2-5 and SAIT-Ang-2-6 prepared according to Example 1 were serially diluted from 100 nM by one-fourth each time with PBS containing 1% BSA and 1 nM hAng-2 and adjusted to a concentration of 6.1 pM. […] The OD₄₅₀ value was read on a plate reader (Molecular Devices). […] Based on the results, each of the monoclonal antibodies SAIT-Ang-2-5 and SAIT-Ang-2-6 of Example 1 was determined to be capable of neutralizing binding between angiopoietin-2 and Tie-2 (refer to Table 1).

Test [2] addresses T1, recombinant hAng-2 (a recombinant human …). Description: SPR (BIAcore T100), hAng-2 amine-coupled on CM5 chip, antibody as analyte. On the procedure:
The affinity of each of the monoclonal antibodies SAIT-Ang-2-5 and SAIT-Ang-2-6 of Example 1 to angiopoietin-2 was measured using a surface plasmon resonance (SPR) device (BIAcore T100, GE Healthcare). 20 μg/ml recombinant hAng-2 (R&D Systems) was immobilized on a CM5 chip (GE Healthcare) using a pH 4.5 acetate solution and an amine coupling kit (GE Healthcare). Each of the monoclonal antibodies SAIT-Ang-2-5 and SAIT-Ang-2-6 of Example 1 was diluted to eight different concentrations down to 0.78125 nM by serially diluting to ½ each time starting from 100 nM. Then, the antigen/antibody affinity was measured by binding each antibody with the antigen immobilized on the CM5 chip and dissociating the antigen from the antibody using a pH2.2 glycine-HCl solution. […] From the results, the affinity of each monoclonal antibody SAIT-Ang-2-5 and SAIT-Ang-2-6 of Example 1 to angiopoietin-2 was determined.

B1: Monoclonal antibody SAIT-Ang-2-5 (antibody, V domains shown)
VH: DVQLVESGGGLAQPGGSRKLSCAASGFTFSNFGMHWVRQAPEKGLDWVAYISSGSDTIYYADTVKGRFTISRDNPKNTLFLQMTSLRSEDTAMYYCARESTMITMGYVLDYWGQGTSVTVSS
VL: DIQMTQSPASQSASLGESVTITCLASQTIGTWLAWYQQKPGKSPQLLIYAATSLADGVPSRFSGSGSGTKFSLKISSLQAEDFVSYYCQQLYSIPLTIGAGTKLELK
notes: also called antibody of hybridoma KCLRF-BP-00221
B1: the IC50 in test [1] worked out at 0.764 nM. For the same molecule, in test [2], the Kd was 0.902 nM, the koff worked out at 0.00178 s⁻¹ and the kon was found to be 1.97e+06 M⁻¹ s⁻¹.

B2: Monoclonal antibody SAIT-Ang-2-6 (antibody, V domains shown)
VH: QVQLQQPGSELVRPGTSVKLSCKASGYTFTNYLMHWVKQRPGQGLEWIGNIYPGSGATNYDEKFKSKATLTVDISSSTAYMQLISLTSEDSAVYYCTRDDYDGSWFAYWGQGTLVTVSA
VL: DIVMTQSPSSLSVSAGEKVTMTCKSSQSLLISGNQKNFLAWYQQKPGQPPKLLIYGASTRDSGVPDRFTGSGSGTDFTLTISSVQAEDLAVYYCQNDHSYPLTFGTGTKLELK
notes: also called antibody of hybridoma KCLRF-BP-00222
In the case of B2, in test [1], the IC50 was determined as 1.86 nM. In test [2], the Kd came to 1.27 nM, the koff was 0.00207 s⁻¹ and the kon was found to be 1.64e+06 M⁻¹ s⁻¹.
